Measurements reported in paper PMC13182210, “Time‐Resolved Native Mass Spectrometry Reveals Reversible Light‐Driven Oligomerization of Arabidopsis Cryptochrome 1 and Its Antagonism by BIC1” (Angewandte Chemie (International Ed. in English), 2026).
Blank lines part the entries; values can stand above or below the molecule they belong to.

B1: Arabidopsis thaliana cryptochrome 1 photolyase homology region (CRY1-PHR) (domain or fragment, UniProt Q43125 1-509, looked up)
chain: MSGSVSGCGSGGCSIVWFRRDLRVEDNPALAAAVRAGPVIALFVWAPEEEGHYHPGRVSRWWLKNSLAQLDSSLRSLGTCLITKRSTDSVASLLDVVKSTGASQIFFNHLYDPLSLVRDHRAKDVLTAQGIAVRSFNADLLYEPWEVTDELGRPFSMFAAFWERCLSMPYDPESPLLPPKKIISGDVSKCVADPLVFEDDSEKGSNALLARAWSPGWSNGDKALTTFINGPLLEYSKNRRKADSATTSFLSPHLHFGEVSVRKVFHLVRIKQVAWANEGNEAGEESVNLFLKSIGLREYSRYISFNHPYSHERPLLGHLKFFPWAVDENYFKAWRQGRTGYPLVDAGMRELWATGWLHDRIRVVVSSFFVKVLQLPWRWGMKYFWDTLLDADLESDALGWQYITGTLPDSREFDRIDNPQFEGYKFDPNGEYVRRWLPELSRLPTDWIHHPWNAPESVLQAAGIELGSNYPLPIVGLDEAKARLHEALSQMWQLEAASRAAIENGSEEG
notes: Cryptochrome 1 of Arabidopsis thaliana, photolyase homology region (PHR) domain; Construct limits, tags and host are not in the main text and probably stand in the Supporting Information; The oligomeric state depends on light: mostly monomer in the dark, tetramer under blue light; also called CRY1 PHR domain; wild-type CRY1; source: recombinant, purified
B2: Blue-light Inhibitor of Cryptochromes 1 (BIC1) (natural protein, UniProt Q9LXJ1 1-140, looked up)
chain: MMNIDDTTSPMAHPIGPSQPPSDQTKQDPPSLPQEAASSVSADKKDLALLEEKPKQSQEEDRVDTGRERLKKHRREIAGRVWIPEIWGQEELLKDWIDCSTFDTCLVPAGISSARTALVEEARRAASASGGLHNRCLILR
notes: The calculated mass may include a tag; Construct details probably stand in the Supporting Information

How the values were obtained:
[1] = biological target: CRY1^L407F mutant of the Arabidopsis CRY1 PHR domain (Arabidopsis thaliana) (UniProt Q43125); experiment: SEC; analytical size exclusion chromatography, samples kept in darkness
[2] = biological target: CRY1^L407F mutant of the Arabidopsis CRY1 PHR domain (Arabidopsis thaliana) (UniProt Q43125); experiment: native MS; LILBID-MS in darkness; CRY1 alone or with BIC1 in an equimolar ratio
[3] = biological target: the molecule itself; experiment: native MS; nESI-MS with a blue-light LED on the sample, static and time-resolved, room temperature, no ATP; two-step reversible kinetic model monomer to dimer to tetramer
[4] = biological target: the molecule itself; experiment: native MS; nESI-MS with a blue-light LED on the sample, static and time-resolved, with 100 µM ATP; two-step reversible kinetic model monomer to dimer to tetramer
[5] = biological target: the molecule itself; experiment: native MS; LILBID-MS with a blue-light LED on the sample throughout; CRY1 alone, with BIC1 in an equimolar ratio, or BIC1 added to pre-illuminated tetrameric CRY1
[6] = biological target: B1; experiment: native MS; quantitative LILBID-MS (qLILBID-MS), label-free, in the dark; mean of three measurements; details: both partners purified
[7] = biological target: CRY1^L407F mutant of the Arabidopsis CRY1 PHR domain (Arabidopsis thaliana) (UniProt Q43125); experiment: as above
[8] = biological target: B1; experiment: native MS; quantitative LILBID-MS (qLILBID-MS), label-free, under blue light; mean of three measurements; details: both partners purified

stoichiometry N [1]: 4 | stoichiometry N [2]: 4
Molecule: CRY1^L407F mutant of the Arabidopsis CRY1 PHR domain (from UniProt Q43125 1-681) (domain or fragment)

Molecule: B1
half-life of tetramer formation (single-exponential fit) [3]: ~18 s | fold decrease of dimer dissociation rate with 100 µM ATP against no ATP [4]: ~10 fold | fold decrease of tetramer dissociation rate with 100 µM ATP against no ATP [4]: ~2 fold | fold increase of dimer-to-tetramer association rate with 100 µM ATP against no ATP [4]: 4 fold | fold increase of monomer-to-dimer association rate with 100 µM ATP against no ATP [4]: ~2 fold | stoichiometry N [5]: 4

Molecule: B2
Kd [6]: ~1.2 µM | Kd [7]: 0.1 µM | Kd [8]: 0.13 ± 0.09 µM
